Reference: the nanobody polyreactivity screen of Harvey et al. (2022)

Experiment: yeast display, Sf9 membrane polyspecificity reagent, FACS + sequencing; frameworks hold sequencing errors
Method in brief: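 In a synthetic yeast display library (Saccharomyces cerevisiae BJ5465), nanobody expression was induced with galactose for 36–48 hours. FACS gates were set low and high (top ~1%) using anti-HA fluorescence for expression and streptavidin fluorescence for binding of the Sf9 membrane reagent. Each polyreactivity label is drawn from the gate of origin.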

## QVQLVESGGGLVQAGGSLSLSCAASGRTFSYYTMGWYRQAPGKERELVARISNRGTNTYYADSVKGRFTISRDNAKNTVYLQMNSLTPEDTAVYYCAKYYYTSIVGYDSWGQGTQVTVSS
  polyreactivity (PSR sort gate): low polyreactivity

## QVQLGESGGGLVQAGGILRLSCAASGRIFPQYAMGWYRQAPGKERELVAGITSVGSTYYADSVKGRFTISRDNAKNTVYLQMNSLKPEDTAVYFCAAVPSRYVRANRRTYRYYYWGKGTQVTVSS
  polyreactivity (PSR sort gate): high polyreactivity

## QVQLVESGGGLVQAGGSLRLSCAASGLTFEDYAMGWNRQEPGKEREFVAAISTSGGRTYYADSVKGRFTISRDNAKNTVYLQMNSLKPEDTAVYYCAAGGWYGYVYRFYYWGQGTQVTVSS
  polyreactivity (PSR sort gate): high polyreactivity

## QVQLVESGGGLVQAGGSLRLSCAASGSIFYYKYAMGWYRQAPGKERELVAAITSTGGTTYYADSVKGRFTISRDNAKNTVYLQMNSLKPEDTAVYYCAALAPYIGGVDYDYWGQGTQVTVSS
  polyreactivity (PSR sort gate): low polyreactivity

## QVHLVESGGGLVQAGGSLRLSCPASGIIFVPNAMGWYRQAPGKEREFVAAISRSGTSTYYADSVKGRFTISRDNAKNTVYLQMNSLKPEDTAVYYCAKSAYRSYSAFGYWGQGTQVTVSS
  polyreactivity (PSR sort gate): high polyreactivity

## QVQLVESGGGLVQAGGSLRLSCAASGIIFNYNAMGWYRQAPGKERELVATISSGDSTNYADSVKGRFTISRDNAKNTVYLQMNSLKPEDTAVYYCAAESPSVFDGYAQLYIILEDYWGQGTQVTVSS
  polyreactivity (PSR sort gate): low polyreactivity

## QVQLVDSGGGLFQAGGSLRLSCAASGSTFYRYAKGWYRQAPGKERELVATITNSGGSTYYADSVKGRFTISRDNAKNTVYLPRNSLKPEDTAVYYCAAVGGRLRGDRGGYWGQGSQVTVSS
  polyreactivity (PSR sort gate): high polyreactivity

## QAQLQESGGGLVQAGGSLPRSCAPSGSIFRFSGMGWYRRAPGKERELVASIGFGSITYYEDRVKGRFTISRDNANNTVYLQMNSLKPEDTAVYYCAVQVQDDSWLDYWGQGTQVTVSC
  polyreactivity (PSR sort gate): low polyreactivity

## QVQLVESAAGLVQAGGSLRLSCAASGIIFSKYAMGWYRQAPGKERELVAASSSSGGSTYYADSVKGRFTISRDNAKNTVYLQMNSLKPEDTAVYYCAKGGGPNSRGYWGQGTQVTVSS
  polyreactivity (PSR sort gate): high polyreactivity

## QVQLVESGGGLVQAGGSLRLSCAASGSIFNYYAMGWYRQAPGKEMELVAGITTSGGYTYYADSVKGRFTISSDNAKNTVYLQMNSLKPEDTAVYYCAAYDYISSTYFLDDYWGQGTQVTVSS
  polyreactivity (PSR sort gate): low polyreactivity

## QVQLVESGGGLVQAGGSLRLSCSASGFIFRFYGMGWYRQAPGKERELVASIRRSGGSTYYADSVKGRFTISRDNAKNSVYLQMNSLKPEDTAVYDCAARWYVYVHFERYYWGQGTQVTVSS
  polyreactivity (PSR sort gate): high polyreactivity

## QVQLVESGGGLVQAGGSLRLSCAASGLTFYSYAMGWSRQAPGKERELVAAISKSGGSTFYADSVKGRFTISRDNAKNTVYLQMNSLKPEDTAVYYCNARRRHEGSPPYGYWGQGTQVTVSS
  polyreactivity (PSR sort gate): high polyreactivity

## QVQLVESGGGLVQAGGSLRLSCAASGRTFRYYTMGWYRQAPGKERELVAAISRGGRTYYADSVKGRFTISRDNGKNTVYLQMNSLKPEDTAVYNCAAQLFREYYYWGHGTQVTVSS
  polyreactivity (PSR sort gate): high polyreactivity

## QVQLVESGRGLVQAGGSLRISCAASGRIFFYYTMGWYRQAPGRERELVAAINSTGATNYADSVKGRFTISRDNAKNTVYLQMNSLKPEDTAVYYCNAGTRYIFLYPPFLGAAFDYWGQGTQVTVSS
  polyreactivity (PSR sort gate): low polyreactivity

## QVQLVESGGGLVQAGGSLRLSCAASGRNSSWNAMGWYRPAPGKERELVAAISVRGGSTYADSVKGRFTISRDNAKNTVSLQMNSLTPADTAVYYCAKTYYPYRLGEGQYEYDYWGQGTQVTVSS
  polyreactivity (PSR sort gate): low polyreactivity

## QVQLVESGGGLVQAGGSLRLSCAASGRTSKRYAMGWYRQAPGKERELVASIRGGDGSTYYADSVKGRFTISRDNAKNTVYLQMNSLKPEDTAVYYCARASSYGYYYWGQGTQVTVSS
  polyreactivity (PSR sort gate): high polyreactivity

## QVQLVESGGGLLQAGGSLRLSCAASGMGWYRQAPGKERELVAAISWNGGSTYYADSVKGRFTISRDNAKNTVYLQMNSLKPEDTAVYYCAADYSTVASSLYLDSWGQGTQVTVSS
  polyreactivity (PSR sort gate): low polyreactivity

## QVQLVESGGGLVQAGGSLRLSCAASGFTFRVNAMGWYRQAPGKERELVASITVSGGNTYYADSVKGRFTISRDNEKNTVYLLMNSLKPEDTAVYYCATDFSPVYYTRYDYWGQGTQVTVSS
  polyreactivity (PSR sort gate): low polyreactivity

## QVQLVESGGGLVQAGGSLRLSCAASGSIFFGNAMGWYRQAPGKERELVAAIDSGGGTNYADSVKGRFTISRDNAKNTVYLQMNSLKPEDTAVYYCAREQGVNRNHDYWGQGTQVTVSS
  polyreactivity (PSR sort gate): low polyreactivity

## QVQHVESGGGLVQAGGSLRLSCAASGFTFKFYTMGWYRQAPGKERELVAAISRSGGTTYYADSVKGRFTISRDNAKNTVYLQMTSLKPEDTAVYYCAAPRTKYLSKYGYWGQGTQVTVSS
  polyreactivity (PSR sort gate): high polyreactivity

## QVQLVESGGGLVQAGGSLRLSCAASGSIFYHNAMGWYRQAPGKERELVAAITSRGGRTTYADSVKGRFTISRDNAKNTVYLQMNSLKPEDTAVYYCNAVYTGYSYISRVDYWGQGTQVTVSS
  polyreactivity (PSR sort gate): low polyreactivity

## QVQLVESGGGLVKAGGSLRLICAASGSTFGGNDKGWYRHAPGKERELVDAISSGTSTNYADSVKGRFTISRDNAMNTVYLQMNSLKPEDTAVYYCNAGFWYRRTYDYWGQGTQVTVSS
  polyreactivity (PSR sort gate): low polyreactivity

## QVQLVEAGGGLVQAGGSLRLSGAASGRTFSLYAMGWYRQAPGKERELVAAITVSGGSTYYADSVKGRFTISRDNAKNTVYLQMNSLKPEDTAVYYCAAEGQPFRYYLLDYWGQGTQVTVSS
  polyreactivity (PSR sort gate): low polyreactivity

## QVQLVESGGGLVQAGGSLRLSCAASGSIFDRNAMGWYRQAPGKERELVAAITSGGSTYYADSVKGRFTISRDNAKNTVYLQMNSLKPEDTGVYYCNADADPPVPLYYWGQGTQVTVSS
  polyreactivity (PSR sort gate): low polyreactivity

## HVQLVESGGGLVQAGGSLRLRCAASGITFAEYTMGWYRQAPGKERELVAAISRRGGSTYYADSVKGRLTISRDNAKNTVYLQMNSLKPEDTAVYYCNALFRYSRDYWGQGTQVTVSS
  polyreactivity (PSR sort gate): high polyreactivity

## QVQLVESGGGLVQAGGSLRFSCAASGGIFFRNAMGWYRQAPGKERELVAVISSGGSTYYADSVKGRFTISRDNAKNTVYLQMNSLKPEDTAVYYCAARRKRPVYTVTLHYPYNYWGQGTQVTVSS
  polyreactivity (PSR sort gate): high polyreactivity

## QVQLVESGGGLVQAGGSLRLSCAASGFTFSFYAMGWYRQAPGKERELVAGISKRGGSTYYADSVKGRFTISRDNAKNTVYFLMNSLNPEDTAVYYCAARWYARSLTRFNYWGQGTQVTVSS
  polyreactivity (PSR sort gate): high polyreactivity

## QVPLVESGGGLVQAGGSLRLSCAASGSTLAGYTMGWYRQAPGKERELVAAITWSGSSTYYADSVKGRFTISRDNAKNTVYLQMNSLKPEDTAVYYCAATYYVYSGGNYLRYDSWGQGTQVTVSS
  polyreactivity (PSR sort gate): high polyreactivity

## QVQLVESGGGLVQAGASLRLSCAASGFISYYYAMGWYRQAPGKERELVAAITKSGGSTYYADSVKGRFTISRDNAKNTVYLQMNSLKREDTAVYYCAAVRSTRNSTSRLYGYWGQGTQVTVSS
  polyreactivity (PSR sort gate): low polyreactivity

## QFHLVESGGGLVQAGGSLRLSCAASGRNLVRYAMGCYRQAPGKERELVAAISKSGGSTYYADSVKGRFTISRDNAKNTVYLQMNSLKPEDTAVYYSNALVRRRPGYIRYDYWGQGTQVTVSS
  polyreactivity (PSR sort gate): low polyreactivity

## QVQLVESGGGLVHAGCSLRLSCAASGLIFGSYSMGWYRQAPGKERELVAAISRSGGSTYYADSVKGRFTISRDNAKNTVYFLMNSLKPEDTAVYYCAARGYPLGIGRIKRNYWGQGKQVTVSS
  polyreactivity (PSR sort gate): high polyreactivity

## QVQLVESGGGLVQAGGSLRFSSAASGSIFQSYPMGLYRPAPGKERELVAAITRSGGRTYYADSVKGRFTISRDNAKNTVYLQMNSLKPEDTAVYYCAAFGWGYGYWGQGTQVTVSS
  polyreactivity (PSR sort gate): high polyreactivity

## QVQLVESGGGLVQAGGSLRLSCAAYGGIFYSNGMGWYRQAPGKERELVAAITGGDITDYADSVKGRFTISRDNAKNTVYLQMNSLKPEDTAVYYCAVESYPPDYGPRFGSWGQGTQVTVSS
  polyreactivity (PSR sort gate): low polyreactivity

## QVQLVESGGGLVQAGGSLRLSCAASGFIFGYYAMGWYRQAPGKERELVAAISKSGGRTRYADSVKGRFTISRDNAKNTVYLQMNSLKPEDTAVYYCATYDPARSTQGYDYWGQGTQVTVSS
  polyreactivity (PSR sort gate): high polyreactivity

## QVQLVESGGGLVQAGGSLRLSCAASARNFYANVMGWYRQAPGKEREFVAAIRWSGGRTYYADSVKGRFTISRDNAKNTVYLQMNSLKPEDTAVYYCAADPWDYISYYIYDYWGQGTQVTVSS
  polyreactivity (PSR sort gate): low polyreactivity

## QVQLVESGGGLVQAGGSLRLTCAASGHIFFYYTMGWYRQAPGKERELVARISSDGDTYYADSVKGRFTISRDNAKNTVYLQMNSLKPEDTAVYYCAAAVLYWVGYGYWGQGTQVTVSS
  polyreactivity (PSR sort gate): low polyreactivity

## QVQLVESGGGLVQAGGSLRLSCAASGSTIYENAMGWYRQAPGKERELVAGISRGGGSTYYADSVKGRFTISRDNAKNTVYLQMNSLKPEDTAVYYCAAGSRVQGGYWGQGTQVTVSS
  polyreactivity (PSR sort gate): low polyreactivity

## QVQLVESGGGLVQAGGSLRLSCAASGFTFKWYTMGWYRQAPGKERELVAGISRRGGSTYYADSVKGRFTISRDNAKNTFYLQMNSLKPEDTAVYYCAADSKLTKFYYWGQGTQVTVSS
  polyreactivity (PSR sort gate): high polyreactivity

## QVQLVESGGGLVQAGGSLRLSCAASGRTFGYYAMGWYRQAPGKERELVATITFGGGSTYYADSVKGRFTISRDNAKNTVYLQMNSLKPEDTAVYYCAADTSVHSEVDYWGQGTQVTVSS
  polyreactivity (PSR sort gate): low polyreactivity

## QVQLVESGGGLVQAGGSLRLSCAASGGIFYRYAMGWYRQAPGKERELVAVISRSGSTYYADSVKGRFTISRDNAKNTVYLQMNSQKPEDTAVYYCNKYGQVPGYFSLDYWGQGTQVTVSS
  polyreactivity (PSR sort gate): high polyreactivity

## QVQLVESGGGLVQAGGSLRLSCAASGLTFAYNGLGWYRQAPGKEGELVAEISASGASTYYADSVKGRFTISRDNAKNTVYLQMNSLKPEDTAVYYCAAPAPYDGHYSIYSWAYTDDYWGQGTQVTVSS
  polyreactivity (PSR sort gate): low polyreactivity

## QVQLVESGGGLVQAGGSLRLSCAASGRIFYVYAMGWYRQAPGKERELVPAITSSGGSTYYADSVKGRFTISRDTAKNTVYLQMNSLKPEDTAVYYCAARERAGYSRIRYNYWGQGTQVTVSS
  polyreactivity (PSR sort gate): high polyreactivity

## QVQLVESGGGLVQAGGSLRLSCAASGRIFVVNAMGWYRQAPGKERELVATITRGASTYADSVKGRFTISRDNAKNTVYLQMNSLKLEDTAVYYCAAAKRPQVVRYDWTKLEYWGQGTQVTVSS
  polyreactivity (PSR sort gate): high polyreactivity
